Measured values published in patent US20200207869A1 (INSERM INSTITUT NATIONAL DE LA SANTE ET DE LA RECHERCHE …, published 2020).

What was measured:
mD1-D2-HPC4 fragment = target: T1, mD1-D2-HPC4 fragment (murine, UniProt Q8CIZ8 23-762); experiment: ELISA, sdAb immobilized
T1 construct: range 23-762
Description: (§1) Wells were then washed three times with 75 μl/well using TBS-T. Residual peroxidase activity was detected by measuring peroxidase-mediated hydrolysis of 3,3′,5,5′-tetramethylbenzidine.
(§2) Negative binding (−) was defined as optical density (OD) being ≤0.5, moderate positive binding (+) was defined as OD being >0.5 and <1.0, strongly positive binding (++) was defined as OD being ≥1.0.

[1] = target: T2, purified recombinant murine VWF (murine, UniProt Q8CIZ8 764-2813); experiment: ELISA, sdAb immobilized
T2 construct: also called rmVWF
Description: as §1, §2

Binder	OD (mD1-D2-HPC4 fragment)	OD [1]
sdAb KB-VWF-013 (VHH, Single-domain antibody against the VWF D'D3 domain; no tag stated) VHH: QVQLVQSGGGLVQAGDSLRLSCAASGRTFIRYAMAWFRQAPGKEREFVAAIPQSGGRSYYADSVKGRFTISRDNAKNTVYLQMNSLKPEDTAVYSCAATSTYYGRSAYSSHSGGYDYWGQGTQVTVSS	≤ 0.5 od	–
sdAb KB-VWF-011 (VHH, Single-domain antibody against the VWF D'D3 domain; no tag stated) VHH: QVQLVQSGGGLVQAGDSLRLSCAASGGTFSNYAMGWFRQTPGKEREFVARISRSGHRTDYADSAKGRFTISRDNAKNTVYLQMNSLKPEDTAVYYCAARSDWSIATTATSYDYWGQGTQVTVSS	≤ 0.5 od	≤ 0.5 od
